From patent US20140356364A1 (AMPLIMMUNE, published 2014) come the findings set out here.

Assay [1] concerns the target T1, Human B7-H4 protein antigen (coated on ELISA plates) (human, UniProt Q7Z7D3 25-259, limits assumed).
T1 construct: also called B7-H4 antigen; human B7-H4 antigen
T1 sequence: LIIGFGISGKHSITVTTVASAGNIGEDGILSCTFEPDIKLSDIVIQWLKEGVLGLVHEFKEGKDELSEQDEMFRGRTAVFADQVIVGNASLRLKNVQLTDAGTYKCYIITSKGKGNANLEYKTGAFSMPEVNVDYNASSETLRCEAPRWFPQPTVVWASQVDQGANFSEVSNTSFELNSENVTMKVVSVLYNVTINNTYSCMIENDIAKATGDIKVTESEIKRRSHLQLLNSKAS
Briefly: ELISA, conditioned medium on coated human B7-H4 antigen, anti-Fc-HRP/TMB.

The target in assay [2] is T1, Human B7-H4 protein antigen (coated on …). Briefly: ELISA, conditioned medium on coated human B7-H4 antigen, anti-Fc-HRP, OD650. How it is done: Human B7-H4 protein antigen and control antigen were coated onto 96-well ELISA plates. The plates are then blocked with 3% BSA, and washed in PBS.
The conditioned media (4 days post transfection) were then tested for antigen binding in the 96-well ELISA. Anti-Fc-HRP was used as the detecting antibody. Plates were washed with PBS, and TMB (3,3′,5,5′-tetramethylbenzidine) was added for HRP color reaction. Once color developed, the OD₆₅₀ in each well was determined on an absorbance microplate reader.

The target in assay [3] is T2, B7-DChIg construct (extracellular domain of human DC linked to the hinge and Fc region of a human IgG1) (human, UniProt Q9BQ51 20-220).
T2 construct: extracellular domain; Specificity control antigen in the plate-based assay; not shown: human IgG1 hinge and Fc region
T2 sequence (looked up): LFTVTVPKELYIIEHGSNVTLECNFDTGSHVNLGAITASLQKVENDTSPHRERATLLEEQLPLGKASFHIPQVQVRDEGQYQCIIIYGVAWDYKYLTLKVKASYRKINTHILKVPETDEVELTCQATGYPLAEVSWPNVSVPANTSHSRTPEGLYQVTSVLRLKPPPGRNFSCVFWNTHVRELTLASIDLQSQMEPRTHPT
In words: plate-based ELISA, hybridoma supernatant on coated B7-DChIg. How it is done:
(§1) Serial dilutions were made from H74 (a commercially available anti-B7-H4 antibody), 2D1, 2E11 and 2H9 stock solutions and added to 96-well ELISA plates coated with B7-H4hIg or B7-DChIg. After incubation and wash, horseradish peroxidase (HRP) conjugated anti-mouse IgG antibody was added to the plates. After incubation and wash, 3,3′,5,5′-Tetramethylbenzidine (TMB) substrate was added. The colorimetric development was stopped by H₂SO₄ stop solution and read with a plate reader measuring absorbance at a 450 nm wavelength.
(§2) A plate-based binding assay using the B7-H4hIg construct was employed to capture the elicited antibody; antibodies were then characterized as being either IgG or IgM. As a specificity control, antibodies were also subjected to capture with a B7-DChIg construct (comprising the extracellular domain (ECD) of human DC linked to the hinge and Fc region of a human IgG1) (“B7-DChIg”) and the extent of IgG capable of binding was measured.

The target of another assay is T3, human B7-H4Ig (B7-H4hIg) (human, UniProt Q7Z7D3 25-259).
T3 construct: also called B7-H4Ig construct; not shown: Ig (Fc) part of the 'hIg' construct
T3 sequence: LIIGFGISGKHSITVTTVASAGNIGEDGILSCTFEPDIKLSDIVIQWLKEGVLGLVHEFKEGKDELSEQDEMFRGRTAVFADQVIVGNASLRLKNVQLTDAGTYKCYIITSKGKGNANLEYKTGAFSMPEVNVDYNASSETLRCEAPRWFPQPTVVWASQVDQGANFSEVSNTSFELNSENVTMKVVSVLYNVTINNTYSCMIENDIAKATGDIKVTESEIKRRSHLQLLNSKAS
In words: plate-based ELISA, hybridoma supernatant on coated B7-H4hIg. As to the method: as §1, §2

In assay [4] the target is T4, human B7-H4 expressed on the surface of stably transfected HEK293 cells (human, UniProt Q7Z7D3 25-282).
T4 construct: also called 293T.B7-H4 cells; human B7-H4 arrayed on the surface of a live cell
T4 sequence: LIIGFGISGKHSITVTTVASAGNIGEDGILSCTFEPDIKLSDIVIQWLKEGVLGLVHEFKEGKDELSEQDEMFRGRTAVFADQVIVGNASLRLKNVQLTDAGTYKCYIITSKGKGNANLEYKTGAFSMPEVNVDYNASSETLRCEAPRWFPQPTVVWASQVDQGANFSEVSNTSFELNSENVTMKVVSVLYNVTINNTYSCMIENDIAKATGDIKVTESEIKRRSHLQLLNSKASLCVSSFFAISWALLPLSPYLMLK
Briefly: flow cytometry, hybridoma supernatant on HEK293 cells expressing human B7-H4, APC anti-mouse detection. As to the method: Antibodies 2D1, 2E11 and 2H9 were used either un-diluted (Neat), or diluted at 1:3, 1:9 and 1:27, to stain 293T.B7-H4 cells. For binding detection, APC labeled anti-mouse IgG antibody was utilized followed by FACS analysis of APC positive cells. H74 (a commercially available anti-B7-H4 antibody) at 1 μg/mL was used as positive control. Negative control was 1 μg/mL of mIgG1. 293T.B7-H4 cells incubated with APC labeled anti-mouse IgG antibody (DAM APC only), and parent 293 T cells stained with un-diluted 2D1 (Neat [293T]) further served as negative binding controls.
Neat and diluted hybridoma supernatants were then tested for the ability of their antibodies to bind to such cells or to control […] HEK293 cells. After washing, bound antibody was detected with allophycocyanin (APC)-conjugated, anti-mouse antibodies and the mean fluorescent intensity of the cells was determined (FIG. 3).

B1: recombinant chimeric anti-B7-H4 antibody 2D1 (2D1 heavy chain / 2D1 light chain, human IgG4 S228P) (antibody, V domains shown)
VH: EVQLVESGGGLVKPGGSLKLSCAASGFTFNSHGMSWVRQTPEKRLDWVATISDGGTYTYYPVNVKGRFTISRDNAKNNLYLQMSHLKSEDTAMYYCARDGGGGAYWGQGTLVTVSA
VL: DVVMTQTPLSLPVSLGDQASISCRSSHSLVHSNGNTYLHWYLQKPGQSPNLLIYIVSNRFSGVPDRFSGSGSGTDFTLKISRVEAEDLGVYFCSQSTHVPPTFGAGTKLELKR
notes: tested as CHO conditioned medium; also called 2D1 HC + 2D1 LC
In the case of B1, the OD650 in assay [1] was found to be 1.12 OD650.

B2: recombinant antibody of 2H9 heavy chain and 2D1 light chain (human IgG4 S228P) (antibody, V domains shown)
VH: EVQLVESGGNLVKPGGSLKLSCAASGFTFSNSAMSWVRQTPEKRLEWVATISDGGRYTYYPDNVKGRFTISRDNAKNNLYLQMSHLKSEDTALYYCARDRPHWYFDVWGTGATVTVSS
VL: DVVMTQTPLSLPVSLGDQASISCRSSHSLVHSNGNTYLHWYLQKPGQSPNLLIYIVSNRFSGVPDRFSGSGSGTDFTLKISRVEAEDLGVYFCSQSTHVPPTFGAGTKLELKR
notes: Mixed-chain combination tested as CHO conditioned medium; also called 2H9 HC + 2D1 LC
As to B2, the OD650 in assay [1] came to 0.02 OD650. Moreover, the binding result in assay [2] is “no binding”.

B3: recombinant antibody of 2D1 heavy chain and 2H9 light chain (human IgG4 S228P) (antibody, V domains shown)
VH: EVQLVESGGGLVKPGGSLKLSCAASGFTFNSHGMSWVRQTPEKRLDWVATISDGGTYTYYPVNVKGRFTISRDNAKNNLYLQMSHLKSEDTAMYYCARDGGGGAYWGQGTLVTVSA
VL: DIVLTQSPASLAVSLGQRATISCRASESIDNYGISFMHWYQQKPGQPPKLLIYRASNLESGIPARFSGSGSRTDFTLTINPVETDDVATYFCQQSDEGRTFGGGTKLEIKR
notes: Mixed-chain combination tested as CHO conditioned medium; also called 2D1 HC + 2H9 LC
For B3, in assay [1], the OD650 was found to be 0.06 OD650. In assay [2], the binding result is given as “no binding”.

B4: anti-human B7-H4 antibody 2D1 (murine hybridoma clone) (antibody, IgG2, V domains shown)
VH: EVQLVESGGGLVKPGGSLKLSCAASGFTFNSHGMSWVRQTPEKRLDWVATISDGGTYTYYPVNVKGRFTISRDNAKNNLYLQMSHLKSEDTAMYYCARDGGGGAYWGQGTLVTVSA
VL: DVVMTQTPLSLPVSLGDQASISCRSSHSLVHSNGNTYLHWYLQKPGQSPNLLIYIVSNRFSGVPDRFSGSGSGTDFTLKISRVEAEDLGVYFCSQSTHVPPTFGAGTKLELK
notes: Mouse hybridoma antibody tested as hybridoma supernatant; also called Anti-Human B7-H4 Clone 2D1
As for B4, the binding result in assay [3] was “no binding”.

B5: recombinant chimeric anti-B7-H4 antibody 2H9 (2H9 heavy chain / 2H9 light chain, human IgG4 S228P) (antibody, V domains shown)
VH: EVQLVESGGNLVKPGGSLKLSCAASGFTFSNSAMSWVRQTPEKRLEWVATISDGGRYTYYPDNVKGRFTISRDNAKNNLYLQMSHLKSEDTALYYCARDRPHWYFDVWGTGATVTVSS
VL: DIVLTQSPASLAVSLGQRATISCRASESIDNYGISFMHWYQQKPGQPPKLLIYRASNLESGIPARFSGSGSRTDFTLTINPVETDDVATYFCQQSDEGRTFGGGTKLEIKR
notes: tested as CHO conditioned medium; also called 2H9 HC + 2H9 LC
In the case of B5, the OD650 in assay [1] was 1.15 OD650.

B6: anti-human B7-H4 antibody 2H9 (murine hybridoma clone) (antibody, IgG1, V domains shown)
VH: EVQLVESGGNLVKPGGSLKLSCAASGFTFSNSAMSWVRQTPEKRLEWVATISDGGRYTYYPDNVKGRFTISRDNAKNNLYLQMSHLKSEDTALYYCARDRPHWYFDVWGTGATVTVSS
VL: DIVLTQSPASLAVSLGQRATISCRASESIDNYGISFMHWYQQKPGQPPKLLIYRASNLESGIPARFSGSGSRTDFTLTINPVETDDVATYFCQQSDEGRTFGGGTKLEIK
notes: Mouse hybridoma antibody tested as hybridoma supernatant; IgG1-producing clone; also called Anti-Human B7-H4 Clone 2H9
With B6, the binding result in assay [3] is “no binding”.

B7: anti-human B7-H4 antibody 2E11 (murine hybridoma clone) (antibody, IgG1, V domains shown)
VH: EVKLVESEGGLVQPGSSMKLSCTASGFKFTDYYMAWVRQVPEKGLEWVANINYDGSSTYYLDSLKSRFIISRDNAKNILYLQMNSLKSEDTATYYCARKGYFDYWGQGTTLTVSS
VL: DIVMSQSPSSLAVSVGEKVTVSCKSSQSLLYSTNQRTYLAWFQQKPGQSPKLLIYWASTRESGVPDRFTGSGSGTDFTLTISSVKAEDLAVYYCQQYYNYPLTFGTGTKLELK
notes: Mouse hybridoma antibody tested as hybridoma supernatant; IgG1-producing clone; also called Anti-Human B7-H4 Clone 2E11
For the molecule B7, the binding result in assay [3] is “no binding”; with human B7-H4Ig (B7-H4hIg) it was “binds”; in assay [4] it was “binds”.
